In this assay the target is amyloid β precursor-like protein 1 (Aplp1), on transfected SH-SY5Y cells (UniProt Q03157). Kind of assay: cell surface-binding assay.

The Kd is a measure of binding affinity in units of concentration.

UniProt Q03157, sequence (Q03157 39-654): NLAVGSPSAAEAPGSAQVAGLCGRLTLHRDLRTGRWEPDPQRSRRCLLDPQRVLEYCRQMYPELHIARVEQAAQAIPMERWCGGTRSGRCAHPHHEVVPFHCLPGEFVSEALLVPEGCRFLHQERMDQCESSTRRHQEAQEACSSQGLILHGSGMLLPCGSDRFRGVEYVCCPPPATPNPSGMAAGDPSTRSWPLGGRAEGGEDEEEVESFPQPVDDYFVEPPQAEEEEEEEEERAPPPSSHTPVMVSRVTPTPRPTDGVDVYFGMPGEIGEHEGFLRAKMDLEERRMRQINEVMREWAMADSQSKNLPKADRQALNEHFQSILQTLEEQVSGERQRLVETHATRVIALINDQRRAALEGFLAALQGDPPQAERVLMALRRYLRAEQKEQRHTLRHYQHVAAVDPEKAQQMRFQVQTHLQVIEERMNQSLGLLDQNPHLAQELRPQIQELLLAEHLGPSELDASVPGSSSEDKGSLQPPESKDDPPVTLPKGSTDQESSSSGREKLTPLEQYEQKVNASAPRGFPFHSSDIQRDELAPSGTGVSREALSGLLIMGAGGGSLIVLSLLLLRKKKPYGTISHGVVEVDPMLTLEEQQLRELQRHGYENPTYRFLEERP

Regarding β-amyloid-biotin PFF (peptide), the equilibrium dissociation constant (Kd) was above 3 µM.

For the origin of these results see paper doi:10.1101/2021.05.01.442157.
